Experiment [1] deals with full-length VAMP2 (mouse His6-SUMO-VAMP2, residues 1-116) (mouse) (UniProt P63044).
In experiment [2] the target is Syntaxin1 (rat) (UniProt P32851).
Chain of Syntaxin1 (rat) (P32851 whole entry): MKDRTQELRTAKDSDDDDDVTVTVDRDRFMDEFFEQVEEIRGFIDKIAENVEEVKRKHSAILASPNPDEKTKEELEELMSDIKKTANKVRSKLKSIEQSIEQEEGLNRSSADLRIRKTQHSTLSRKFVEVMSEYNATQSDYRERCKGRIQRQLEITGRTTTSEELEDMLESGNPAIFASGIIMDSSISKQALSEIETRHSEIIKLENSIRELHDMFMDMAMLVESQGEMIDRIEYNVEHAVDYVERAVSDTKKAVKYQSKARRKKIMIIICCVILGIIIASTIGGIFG

Chain of full-length VAMP2 (mouse His6-SUMO-VAMP2, residues 1-116) (mouse) (P63044 whole entry, the tested form may be a part): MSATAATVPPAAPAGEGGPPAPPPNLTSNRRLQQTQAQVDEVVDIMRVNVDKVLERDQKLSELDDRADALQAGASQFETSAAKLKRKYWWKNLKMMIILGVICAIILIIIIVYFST

In experiment [1], “Munc13 D1358K (from UniProt Q62768 529-1407; Q62768 1453-1735) (domain or fragment)” yielded a single-vesicle fusion assay with 500 nM DHG: fraction of immobile clamped vesicles that fused upon 100 µM Ca2+ (wild type ~90%) of 20%.
Regarding “Munc13 N1128A/F1131A (from UniProt Q62768 529-1407; Q62768 1453-1735) (domain or fragment)”, the single-vesicle fusion assay with 500 nM DHG: fraction of immobile clamped vesicles that fused upon 100 µM Ca2+ (wild type ~90%) in experiment [2] worked out at 20%.

The values are drawn from paper PMC10450444.
